System: PI-SceI meganuclease
Assay: cell_activity
Conditions: mouse eggs, purified protein co-injected, DNA/protein 1:25; 3 of 10 embryos; indirect evidence of cleavage

With PI-SceI sites in PIFFLago as the substance, how does the activity (% transgenic embryos) read?
The activity (% transgenic embryos) was 30.
